According to patent publication US20130058965A1, “INJECTABLE FORMULATIONS FOR PARENTERAL ADMINISTRATION” (MANNKIND CORPORATION, priority 2009, published 2013):

Target: HLA-A*0201 (Homo sapiens, UniProt P04439, D140Y/D185E/D98H/E176V/E277Q/G131W/G231S/I119V/I121R/I166T/I218V/L300P/L318F/N151K/N90K/P208A/P217A/Q86G/Q94H/R138H/R169H/T345S)
Test: NY-ESO-1 analogues, % peptide binding (Table 1)

| Substance | % Peptide Binding [%] |
| --- | --- |
| NY-ESO-1 157-165 (S157Y, C165V) (YLLMWITQV; Peptide analogue) [SEQ ID NO:13] | 80 |
| NY-ESO-1 157-165 (S157Y, L158(Nva), C165V) [SEQ ID NO:19] | 80 |
